Reference: PMC10245973

Target: Prunus persica WEEP protein (PpeWEEP), 6xHis-MBP-PpeWEEP-StrepTagII fusion protein (Prunus persica (peach))
Experiment: SEC

**Q.** For “Prunus persica WEEP protein (PpeWEEP), 6xHis-MBP-PpeWEEP-StrepTagII fusion protein (natural protein)”, which stoichiometry N is on record?
**A.** The stoichiometry N was 8.7 mer.
